Molecular target: T1, Thyroid hormone receptor beta (THRβ), recombinant (Homo sapiens, UniProt P10828 1-461)
T1 sequence: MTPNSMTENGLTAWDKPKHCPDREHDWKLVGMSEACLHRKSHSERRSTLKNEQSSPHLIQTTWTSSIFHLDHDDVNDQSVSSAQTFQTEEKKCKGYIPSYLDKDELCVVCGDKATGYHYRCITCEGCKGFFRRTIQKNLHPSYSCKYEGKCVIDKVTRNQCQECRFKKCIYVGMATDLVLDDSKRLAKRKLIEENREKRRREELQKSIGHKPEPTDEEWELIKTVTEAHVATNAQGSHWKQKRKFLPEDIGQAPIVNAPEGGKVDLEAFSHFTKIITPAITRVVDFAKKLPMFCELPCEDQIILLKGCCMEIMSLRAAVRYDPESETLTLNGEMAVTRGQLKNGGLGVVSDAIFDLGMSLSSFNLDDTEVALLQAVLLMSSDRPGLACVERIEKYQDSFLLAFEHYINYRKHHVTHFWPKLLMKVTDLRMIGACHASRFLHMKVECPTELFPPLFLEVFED
Assay: EMSA

B1: rs717-G (dsDNA)
DNA 1: CCCGGTCAGGACCACGGTGACCATGAGGGCG
DNA 2: CGCCCTCATGGTCACCGTGGTCCTGACCGGG
Q: Does B1 bind?
A: Result: binds
